Paper PMC4636433

Biological target: Rep68 wt (Adeno-associated virus 2 (AAV2), UniProt P03132 1-536)
Assay: fluorescence anisotropy

Rep68 wt, sequence (P03132 whole entry): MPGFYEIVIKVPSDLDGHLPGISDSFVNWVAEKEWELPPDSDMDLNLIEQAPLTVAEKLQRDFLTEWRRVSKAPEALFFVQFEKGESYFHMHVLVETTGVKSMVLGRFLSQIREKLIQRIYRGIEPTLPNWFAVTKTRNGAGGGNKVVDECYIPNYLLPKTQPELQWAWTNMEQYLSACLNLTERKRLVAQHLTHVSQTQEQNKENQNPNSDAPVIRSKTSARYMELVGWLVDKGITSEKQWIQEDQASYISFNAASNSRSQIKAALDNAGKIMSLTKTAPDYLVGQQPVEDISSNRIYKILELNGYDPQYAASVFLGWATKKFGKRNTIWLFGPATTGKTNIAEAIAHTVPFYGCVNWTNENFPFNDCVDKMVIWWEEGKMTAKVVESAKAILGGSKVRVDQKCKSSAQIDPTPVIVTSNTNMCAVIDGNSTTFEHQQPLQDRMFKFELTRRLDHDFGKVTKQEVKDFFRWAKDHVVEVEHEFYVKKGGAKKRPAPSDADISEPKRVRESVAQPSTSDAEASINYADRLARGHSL

B1: 41-mer AAVS1 RBS DNA (dsDNA)
DNA 1: TGGCGGCGGTTGGGGCTCGGCGCTCGCTCGCTCGCTGGGCG
DNA 2: CGCCCAGCGAGCGAGCGAGCGCCGAGCCCCAACCGCCGCCA
binding result: binds
